According to patent US7238786B2, “Monoclonal antibody cPAM4” (Immunomedics, Inc., priority 2002, dated 2007):
Substitutions are numbered along the chain they refer to.

How the values were obtained:
[1] = system: Normal Adult Tissues; assay: Immunoperoxidase staining of normal adult tissues with MAb PAM4; assay type: binding, human
Excerpt: (§1) Normal pancreatic tissue, including ducts, ductules, acini, and islet cells, were negative for staining. A PAM4 based enzyme immunoassay with tissue homogenates as antigens generally supported the immunohistology data (Table 2). The PAM4 epitope was absent from normal pancreas and other nongastrointestinal tissues. In neoplastic tissues, PAM4 was reactive with twenty one out of twenty five ([…]) pancreatic cancers (Table 3). PAM4 reactivity appeared to correlate with the stage of tumor differentiation. […] Generally, poorly differentiated tumors represent less than 10% of all pancreatic cancers.

[2] = system: Neoplastic Tissues; assay: Immunoperoxidase staining of neoplastic tissues with MAb PAM4; assay type: binding, human
Excerpt: as §1

[3] = system: Pancreatic Tumors; assay: Immunohistochemical reactivity of monoclonal antibodies with pancreatic tumors; assay type: binding, human; set-up: key to Immunohistochemical reactivity: −: Negative; +: 5–20% of tissue is stained; ++: 21–50% of tissue is stained; +++: >50% of tissue is stained
Excerpt: as §1
(§2) These studies have shown the PAM4 reactivity and tissue distribution (both normal and cancer) to be unlike that reported for CA19.9, DUPAN2, SPAN1, Nd2, B72.3, and the Lewis antigens. […] When compared to CA19.9, DUPAN2, and aLe^a, PAM4 appears to be more restricted in its tissue distribution and it is reactive with a higher percentage of pancreatic tumors. Moreover, it gives a greater overall intensity of reaction at equivalent concentrations and is reactive with a higher percentage of cells within the tumors. […] Although it is recognized that specificity is dependent upon the type of assay employed and the range and number of tissues examined, the ability of PAM4 to discriminate between normal and neoplastic pancreatic tissue, its ability to react with a large percentage of the cancer specimens, as well as the high intensity of the reactions, were important rationales for pursuing developmental studies of clinical application.

[4] = system: chronic pancreatitis specimens; assay: Immunohistochemistry of chronic pancreatitis specimens; assay type: binding, human; details: twelve specimens
Excerpt: as §2

[5] = system: tumors; assay: Clinical studies with PAM4 MAb: targeting and dosimetry; assay type: in vivo, human; details: patients
[6] = system: CaPan1; assay: Biodistribution and dosimetry of radiolabeled PAM4, CaPan1 xenograft; details: in vivo
Description: Initial biodistribution studies of PAM4 were carried out in a series of four different xenografted human pancreatic tumors covering the range of expected differentiation. […] The biodistribution data were used to estimate potential radiation doses to the tumor of 12,230; 10,684; 6,835; and 15,843 cGy/mCi of injected dose to AsPc1, BxPc3, Hs766T and CaPan1, respectively. With an actual maximum tolerated dose (MTD) of 0.7 mCi, PAM4 could provide substantial rad dose to each of the xenografted tumor models. […] Potential radiation doses to the blood from PAM4 were 1.4-4.4 fold lower than from Ag8. […] Importantly, potential radiation doses to non-tumor tissues were minimal.
The biodistribution of PAM4 was compared with an anti-CEA antibody, MN14, using the CaPan1 tumor model. The concentration of PAM4 within the tumor was much greater than the MN14 at early timepoints, yielding tumor:blood ratios at day three of 12.7±2.3 for PAM4 compared to 2.7±1.9 for MN14. […] This was due to a rapid clearance of PAM4 from the tumor, such that at later timepoints similar concentrations of the two antibodies were present within the tumors. A rapid clearance of PAM4 from the tumor was also noted in the BxPc3 and Hs766T but not AsPc1 tumor models. […] Results from studies on the metabolism of PAM4, indicate that after initial binding to the tumor cell, antibody is rapidly released, possibly being catabolized or being shed as an antigen:antibody complex. This might have had unfavorable implications for the use of the antibody in patients except that the blood clearance is also very rapid.
This type of splenic targeting has been observed in the clinical application of the anti-mucin antibodies B72.3 and CC49. […] The latter would require the presence of immune complexes in the blood; however, these were not observed when specimens as early as five minutes and as late as seven days were examined by gel filtration (HPLC, GF-250 column); radiolabeled antibody eluted as native material. The former explanation seems more likely in view of the fact that the CaPan1 tumor produced large quantities of PAM4-reactive antigen, 100 to 1000-fold higher than for the other tumor cell lines examined. […] In any event, splenic targeting can be overcome by increasing the protein dose to 10 ug from the original 2 ug dose. A greater amount of the splenic entrapped antigen presumably was complexed with unlabeled PAM4 rather than radiolabeled antibody. Increasing the protein dose had no adverse effect upon targeting of PAM4 to the tumor or nontumor tissues.

[7] = system: Normal Adult Tissue Homogenates; assay: PAM4 based enzyme immunoassay with tissue homogenates as antigens; assay type: binding, human
Excerpt: as §1

[8] = system: PAM4 antigen; assay: Competition with ^131I-mPAM4 binding to the antigen (FIG. 3); details: competing with ^131I-mPAM4 binding to the antigen
Excerpt: A chimeric antibody is a recombinant protein that contains the variable domains including the complementarity determining regions (CDRs) of an antibody derived from one species while the constant domains of the antibody molecule is derived from those of a human antibody.

B1: PAM4: murine MUC1 monoclonal antibody developed with pancreatic cancer mucin from the xenografted RIP-1 human pancreatic carcinoma as immunogen (antibody, V domains shown)
VL: DIVMTQSPAIMSASPGEKVTMTCSASSSVSSSYLYWYQQKPGSSPKLWIYSTSNLASGVPARFSGSGSGTSYSLTISSMEAEDAASYFCHQWNRYPYTFGGGTKLEIK
VH: EVQLQESGPELVKPGASVKMSCKASGYTFPSYVLHWVKQKPGQGLEWIGYINPYNDGTQYNEKFKGKATLTSDKSSSTAYMELSRLTSEDSAVYYCARGFGGSYGFAYWGQGTLITVSA
- Staining Reaction ([1]; Colon): + goblet cells
- Staining Reaction ([1]; Duodenum): + goblet cells
- Staining Reaction ([1]; Ileum): + goblet cells
- Staining Reaction ([1]; Jejunum): + goblet cells
- Staining Reaction ([1]; Stomach): + mucus secreting cells
- Positive/Total ([2]; Breast neoplastic tissue): 0/30
- Positive/Total ([2]; Colon neoplastic tissue): 10/26
- Positive/Total ([2]; Kidney neoplastic tissue): 0/4
- Positive/Total ([2]; Liver neoplastic tissue): 0/10
- Positive/Total ([2]; Lung neoplastic tissue): 1/15
- Positive/Total ([2]; Ovarian neoplastic tissue): 0/10
- Positive/Total ([2]; Pancreas neoplastic tissue): 21/25
- Positive/Total ([2]; Prostate neoplastic tissue): 0/4
- Positive/Total ([2]; Stomach neoplastic tissue): 1/5
- specimens reactive with PAM4 by immunohistochemistry ([2]; colorectal cancer specimens): 40%
- Immunohistochemical reactivity, TOTAL (positive/examined) ([3]; all pancreatic tumors): 21/25
- Immunohistochemical reactivity ([3]; pancreatic tumor 1, differentiation W): +++ (+++: >50% of tissue is stained)
- Immunohistochemical reactivity ([3]; pancreatic tumor 2, differentiation M): ++ (++: 21–50% of tissue is stained)
- Immunohistochemical reactivity ([3]; pancreatic tumor 3, differentiation M): + (+: 5–20% of tissue is stained)
- Immunohistochemical reactivity ([3]; pancreatic tumor 4, differentiation M): +++ (+++: >50% of tissue is stained)
- Immunohistochemical reactivity ([3]; pancreatic tumor 5, differentiation M): ++ (++: 21–50% of tissue is stained)
- Immunohistochemical reactivity ([3]; pancreatic tumor 6, differentiation M): + (+: 5–20% of tissue is stained)
- Immunohistochemical reactivity ([3]; pancreatic tumor 7, differentiation M, metastatic tissue): +++ (+++: >50% of tissue is stained)
- Immunohistochemical reactivity ([3]; pancreatic tumor 8, differentiation M): + (+: 5–20% of tissue is stained)
- Immunohistochemical reactivity ([3]; pancreatic tumor 9, differentiation M): ++ (++: 21–50% of tissue is stained)
- Immunohistochemical reactivity ([3]; pancreatic tumor 10, differentiation M, metastatic tissue): ++ (++: 21–50% of tissue is stained)
- Immunohistochemical reactivity ([3]; pancreatic tumor 11, differentiation M): ++ (++: 21–50% of tissue is stained)
- Immunohistochemical reactivity ([3]; pancreatic tumor 12, differentiation M): ++ (++: 21–50% of tissue is stained)
- Immunohistochemical reactivity ([3]; pancreatic tumor 13, differentiation M): + (+: 5–20% of tissue is stained)
- Immunohistochemical reactivity ([3]; pancreatic tumor 14, differentiation M): ++ (++: 21–50% of tissue is stained)
- Immunohistochemical reactivity ([3]; pancreatic tumor 15, differentiation M): +++ (+++: >50% of tissue is stained)
- Immunohistochemical reactivity ([3]; pancreatic tumor 16, differentiation M): + (+: 5–20% of tissue is stained)
- Immunohistochemical reactivity ([3]; pancreatic tumor 17, differentiation M): −
- Immunohistochemical reactivity ([3]; pancreatic tumor 18, differentiation M): ++ (++: 21–50% of tissue is stained)
- Immunohistochemical reactivity ([3]; pancreatic tumor 19, differentiation M): +++ (+++: >50% of tissue is stained)
- Immunohistochemical reactivity ([3]; pancreatic tumor 20, differentiation M): + (+: 5–20% of tissue is stained)
- Immunohistochemical reactivity ([3]; pancreatic tumor 21, differentiation M): +++ (+++: >50% of tissue is stained)
- Immunohistochemical reactivity ([3]; pancreatic tumor 22, differentiation P): + (+: 5–20% of tissue is stained)
- Immunohistochemical reactivity ([3]; pancreatic tumor 23, differentiation P): −
- Immunohistochemical reactivity ([3]; pancreatic tumor 24, differentiation P): −
- Immunohistochemical reactivity ([3]; pancreatic tumor 25, differentiation P): −
- tumors positive ([3]; poorly differentiated pancreatic tumors): one out of four
- pancreatic cancers reactive ([3]; twenty one out of twenty five pancreatic cancers): 85%
- tumors positive ([3]; well and moderately differentiated pancreatic tumors): twenty out of twenty one
- reactivity with chronic pancreatitis specimens [4]: only weakly reactive with three out of twelve
- targeting of lesions [5]: a majority of the lesions were targeted
- uptake in normal tissues [5]: no indication of uptake in normal tissues
- concentration of radiolabeled PAM4 within the CaPan1 tumor on increasing protein dose [6]: more than doubled
- dose to the tumor, fold higher than MN14 [6]: 3.2 fold
- splenic uptake [6]: 3.1-7.5 % ID/g
- tumor:blood ratio [6]: 12.7±2.3
- PAM4 reactivity by EIA ([7]; Adrenal, mean from two autopsy specimens): 1.3 ug/g tissues
- PAM4 reactivity by EIA ([7]; Bladder, mean from two autopsy specimens): 4.9 ug/g tissues
- PAM4 reactivity by EIA ([7]; CaPan1 Pancreatic Tumor): 569 ug/g tissues
- PAM4 reactivity by EIA ([7]; Colon, mean from two autopsy specimens): 74.5 ug/g tissues
- PAM4 reactivity by EIA ([7]; Duodenum, mean from two autopsy specimens): 44.7 ug/g tissues
- PAM4 reactivity by EIA ([7]; Esophagus, mean from two autopsy specimens): 8.1 ug/g tissues
- PAM4 reactivity by EIA ([7]; Gallbladder, mean from two autopsy specimens): 5.6 ug/g tissues
- PAM4 reactivity by EIA ([7]; Heart, mean from two autopsy specimens): 3.7 ug/g tissues
- PAM4 reactivity by EIA ([7]; Jejunum, mean from two autopsy specimens): 60.6 ug/g tissues
- PAM4 reactivity by EIA ([7]; Kidney, mean from two autopsy specimens): 6.6 ug/g tissues
- PAM4 reactivity by EIA ([7]; Liver, mean from two autopsy specimens): 0.0 ug/g tissues
- PAM4 reactivity by EIA ([7]; Pancreas, mean from two autopsy specimens): 6.4 ug/g tissues
- PAM4 reactivity by EIA ([7]; Spleen, mean from two autopsy specimens): 3.4 ug/g tissues
- PAM4 reactivity by EIA ([7]; Stomach, mean from two autopsy specimens): 61.3 ug/g tissues
- PAM4 reactivity by EIA ([7]; Testes, mean from two autopsy specimens): 3.9 ug/g tissues
- PAM4 reactivity by EIA ([7]; Thyroid, mean from two autopsy specimens): 3.5 ug/g tissues
- PAM4 reactivity by EIA ([7]; Ureter, mean from two autopsy specimens): 2.6 ug/g tissues

B2: cPAM4: chimeric PAM4: murine PAM4 variable domains with human light and heavy chain constant regions (antibody, V domains shown)
VL: DIQLTQSPAIMSASPGEKVTMTCSASSSVSSSYLYWYQQKPGSSPKLWIYSTSNLASGVPARFSGSGSGTSYSLTISSMEAEDAASYFCHQWNRYPYTFGGGTKLEIKR
VH: B1 VH with E1Q
- binding activity compared to murine PAM4 [8]: comparable binding activity
